From EP1870419A2, “Modulators of beta-amyloid peptide aggregation comprising D-amino acids” (Praecis Pharmaceuticals Incorporated, priority 1999, dated 2000)
Values belong to the substance of their own block, whether it stands above or below them.

Molecular target: Aβ1-40 peptide (natural β-amyloid peptide, β-AP1-40)
Experiment: cell-based or functional assay

Aβ1-40 peptide (natural β-amyloid peptide, β-AP1-40), sequence (peptide, as listed by the source limits assumed, form in doubt): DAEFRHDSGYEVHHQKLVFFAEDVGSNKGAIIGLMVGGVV

Nucleation assay Δlag, 1.25 µM compound (fold of control lag time): 3
Nucleation assay Δlag, 2.5 µM compound (fold of control lag time): > 5
Nucleation assay Δlag, 5 µM compound (fold of control lag time): > 5
Substance: PPI 969: TFA·N-ethyl-(Gaffvl)-NH2 (peptide)

Nucleation assay Δlag, 0.3 µM compound (note *) (fold of control lag time): 3
Nucleation assay Δlag, 0.6 µM compound (note #) (fold of control lag time): 1.5
Nucleation assay Δlag, 1 µM compound (note *) (fold of control lag time): 4
Nucleation assay Δlag, 1.25 µM compound (note #) (fold of control lag time): 1.5
Nucleation assay Δlag, 2.5 µM compound (note #) (fold of control lag time): 1.5
Nucleation assay Δlag, 3 µM compound (note *) (fold of control lag time): 4
Substance: PPI 1007: TFA·N,N-dimethyl-(lvffl)-NH2 (peptide)

Nucleation assay data (Δlag), 0.6 µM compound (note *) (fold of control lag time): 2
Nucleation assay data (Δlag), 1.25 µM compound (note *) (fold of control lag time): > 2.5
Nucleation assay data (Δlag), 2.5 µM compound (note *) (fold of control lag time): > 2.5
Substance: PPI 1125: 2 TFA·H-lvf-NH-NH-fvl-H (peptide)

Nucleation assay data (Δlag), 0.3 µM compound (fold of control lag time): 1
Nucleation assay data (Δlag), 1 µM compound (fold of control lag time): 3
Nucleation assay data (Δlag), 3 µM compound (fold of control lag time): > 5
Substance: PPI 1320: TFA·H-(lf-[F5]f-vl)-NH2 (peptide)

Further lines, the substance ahead of its results:

Substance: PPI 992: TFA·H-(lvffa)-isopropylamide (peptide)
Nucleation assay Δlag, 1.25 µM compound (fold of control lag time): 1
Nucleation assay Δlag, 2.5 µM compound (fold of control lag time): 1
Nucleation assay Δlag, 5 µM compound (fold of control lag time): 3

Substance: PPI 1013: TFA·H-(Glvffl)-NH2 (peptide)
Nucleation assay Δlag, 0.6 µM compound (note #) (fold of control lag time): 2
Nucleation assay Δlag, 1.25 µM compound (note #) (fold of control lag time): > 3
Nucleation assay Δlag, 2.5 µM compound (note #) (fold of control lag time): 2

Substance: PPI-1019: TFA•N-methyl-(lvffl)-NH2 (peptide)
Nucleation assay data (Δlag), 0.6 µM compound (note *) (fold of control lag time): 2
Nucleation assay data (Δlag), 1.25 µM compound (note *) (fold of control lag time): > 2.5
Nucleation assay data (Δlag), 2.5 µM compound (note *) (fold of control lag time): > 2.5

Substance: PPI-1318: TFA·H-(lf-D-Cha-vl)-NH2 (peptide)
Nucleation assay data (Δlag), 0.3 µM compound (fold of control lag time): 1
Nucleation assay data (Δlag), 1 µM compound (fold of control lag time): 2
Nucleation assay data (Δlag), 3 µM compound (fold of control lag time): > 5
